Source: patent US20220010003A1

Columns and labels:
[1] = target: recombinant human periostin (human) (UniProt Q15063); experiment: ELISA, human periostin coated, biotinylated collagen type I titrated, Avidin-HRP detection
[2] = target: recombinant human periostin (human) (UniProt Q15063); experiment: ELISA, human periostin coated, biotinylated tenascin C titrated, Avidin-HRP detection

recombinant human periostin (human), sequence (Q15063 22-836 limits assumed): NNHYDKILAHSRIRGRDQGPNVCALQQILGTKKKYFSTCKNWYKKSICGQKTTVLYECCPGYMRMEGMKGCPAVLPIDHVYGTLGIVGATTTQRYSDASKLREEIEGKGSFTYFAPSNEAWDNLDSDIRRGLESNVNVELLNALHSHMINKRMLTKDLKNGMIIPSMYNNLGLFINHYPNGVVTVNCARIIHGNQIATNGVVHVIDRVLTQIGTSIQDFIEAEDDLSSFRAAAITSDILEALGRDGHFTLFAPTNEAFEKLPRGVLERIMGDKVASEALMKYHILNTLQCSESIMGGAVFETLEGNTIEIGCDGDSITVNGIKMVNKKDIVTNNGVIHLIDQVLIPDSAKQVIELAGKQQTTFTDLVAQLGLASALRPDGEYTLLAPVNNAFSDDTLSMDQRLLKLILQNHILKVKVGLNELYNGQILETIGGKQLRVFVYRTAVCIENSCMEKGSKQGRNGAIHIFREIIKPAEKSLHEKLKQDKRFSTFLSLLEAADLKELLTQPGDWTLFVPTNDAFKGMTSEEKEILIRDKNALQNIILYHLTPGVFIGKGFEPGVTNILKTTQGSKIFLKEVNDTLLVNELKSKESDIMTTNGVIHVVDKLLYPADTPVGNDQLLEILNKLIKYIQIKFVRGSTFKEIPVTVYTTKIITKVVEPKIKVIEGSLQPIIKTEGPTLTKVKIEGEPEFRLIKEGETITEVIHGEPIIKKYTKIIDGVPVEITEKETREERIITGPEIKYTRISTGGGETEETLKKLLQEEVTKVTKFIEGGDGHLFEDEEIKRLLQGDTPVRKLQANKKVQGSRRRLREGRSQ

Substance | EC80 [1] [nM] | EC80 [2] [nM]
human collagen type I (from UniProt P02452 162-1218; P08123 80-1119) | 100 | 
recombinant human tenascin C (from UniProt P24821 23-625) |  | 0.9
